In the oligonucleotide strings, read from the 5' end, every base follows the letter of its sugar. An asterisk marks phosphorothioate; unmarked linkages are phosphodiester. Other units and linkages are bracketed, terminal groups are in braces. A string of capitals states the bases alone. m = 2'-O-methyl; r = 2'-OH (RNA)
Columns and labels:
[1] = system: plasma kallikrein protein; experiment: Plasma kallikrein protein level in cynomolgus monkeys; assay type: in vivo, cynomolgus monkey; settings: n=3
Method: (§1) Cynomolgus monkeys were treated in cohorts of n=3. This study was conducted with LNP formulations according to Example 1. […]. Animals were dosed at 1.5, 3, or 6 mg per kg doses based on total RNA cargo. Indel formation (percent editing) was measured by NGS. Total kallikrein activity and plasma kallikrein protein level were measured as described above. […]

plasma kallikrein = experiment: Plasma kallikrein activity in cynomolgus monkeys; assay type: in vivo, cynomolgus monkey
Method: as §1

B1: G013901: cynomolgus specific KLKB1 guide RNA (SEQ ID NO: 409); dosed as LNP formulation with Cas9 mRNA (nucleic acid)
guide: mG*mG*mA*rUrUrArCrArUrArUrGrGrGrArCrArCrArArGrUrUrUrUrArGrAmGmCmUmAmGmAmAmAmUmAmGmCrArArGrUrUrArArArArUrArArGrGrCrUrArGrUrCrCrGrUrUrArUrCrAmAmCmUmUmGmAmAmAmAmAmGmUmGmGmCmAmCmCmGmAmGmUmCmGmGmUmGmCmU*mU*mU*mU
Plasma Kallikrein Protein Levels (% of basal level), Mean ([1]; 1.5 mpk, Day 14): 28.8 % of basal level | Plasma Kallikrein Protein Levels (% of basal level), Mean ([1]; 1.5 mpk, Day 28): 32.7 % of basal level | Plasma Kallikrein Protein Levels (% of basal level), Mean ([1]; 1.5 mpk, Day 42): 31.5 % of basal level | Plasma Kallikrein Protein Levels (% of basal level), Mean ([1]; 1.5 mpk, Day 56): 30.1 % of basal level | Plasma Kallikrein Protein Levels (% of basal level), Mean ([1]; 1.5 mpk, Day 70): 29.8 % of basal level | Plasma Kallikrein Protein Levels (% of basal level), Mean ([1]; 1.5 mpk, Day 84): 38.7 % of basal level | Plasma Kallikrein Protein Levels (% of basal level), Mean ([1]; 1.5 mpk, Day 105): 47 % of basal level | Plasma Kallikrein Protein Levels (% of basal level), Mean ([1]; 1.5 mpk, Day 119): 31.6 % of basal level | Plasma Kallikrein Protein Levels (% of basal level), Mean ([1]; 1.5 mpk, Day 147): 32.1 % of basal level | Plasma Kallikrein Protein Levels (% of basal level), Mean ([1]; 1.5 mpk, Day 161): 35.8 % of basal level | Plasma Kallikrein Protein Levels (% of basal level), Mean ([1]; 1.5 mpk, Day 180): 33.8 % of basal level | Plasma Kallikrein Protein Levels (% of basal level), Mean ([1]; 1.5 mpk, Day 238): 27.4 % of basal level | Plasma Kallikrein Protein Levels (% of basal level), Mean ([1]; 1.5 mpk, Day 252): 27.9 % of basal level | Plasma Kallikrein Protein Levels (% of basal level), Mean ([1]; 1.5 mpk, Day 266): 28.7 % of basal level | Plasma Kallikrein Protein Levels (% of basal level), Mean ([1]; 1.5 mpk, Day 280): 33.7 % of basal level | Plasma Kallikrein Protein Levels (% of basal level), Mean ([1]; 1.5 mpk, Day 294): 30.4 % of basal level | Plasma Kallikrein Protein Levels (% of basal level), Mean ([1]; 1.5 mpk, Day 308): 20.6 % of basal level | Plasma Kallikrein Protein Levels (% of basal level), Mean ([1]; 1.5 mpk, Day 326): 29.7 % of basal level | Plasma Kallikrein Protein Levels (% of basal level), Mean ([1]; 1.5 mpk, Day 333): 30.9 % of basal level | Plasma Kallikrein Protein Levels (% of basal level), Mean ([1]; 1.5 mpk, Day 347): 26 % of basal level | Plasma Kallikrein Protein Levels (% of basal level), Mean ([1]; 1.5 mpk, Day 365): 22.7 % of basal level | Plasma Kallikrein Protein Levels (% of basal level), Mean ([1]; 3 mpk, Day 14): 27.1 % of basal level | Plasma Kallikrein Protein Levels (% of basal level), Mean ([1]; 3 mpk, Day 28): 16.9 % of basal level | Plasma Kallikrein Protein Levels (% of basal level), Mean ([1]; 3 mpk, Day 42): 16 % of basal level | Plasma Kallikrein Protein Levels (% of basal level), Mean ([1]; 3 mpk, Day 56): 15.4 % of basal level | Plasma Kallikrein Protein Levels (% of basal level), Mean ([1]; 3 mpk, Day 70): 15.4 % of basal level | Plasma Kallikrein Protein Levels (% of basal level), Mean ([1]; 3 mpk, Day 84): 17.1 % of basal level | Plasma Kallikrein Protein Levels (% of basal level), Mean ([1]; 3 mpk, Day 105): 22.3 % of basal level | Plasma Kallikrein Protein Levels (% of basal level), Mean ([1]; 3 mpk, Day 119): 18.1 % of basal level | Plasma Kallikrein Protein Levels (% of basal level), Mean ([1]; 3 mpk, Day 147): 18.3 % of basal level | Plasma Kallikrein Protein Levels (% of basal level), Mean ([1]; 3 mpk, Day 161): 7.5 % of basal level | Plasma Kallikrein Protein Levels (% of basal level), Mean ([1]; 3 mpk, Day 180): 18 % of basal level | Plasma Kallikrein Protein Levels (% of basal level), Mean ([1]; 3 mpk, Day 238): 16.4 % of basal level | Plasma Kallikrein Protein Levels (% of basal level), Mean ([1]; 3 mpk, Day 252): 15.6 % of basal level | Plasma Kallikrein Protein Levels (% of basal level), Mean ([1]; 3 mpk, Day 266): 21.8 % of basal level | Plasma Kallikrein Protein Levels (% of basal level), Mean ([1]; 3 mpk, Day 280): 24.6 % of basal level | Plasma Kallikrein Protein Levels (% of basal level), Mean ([1]; 3 mpk, Day 294): 24.6 % of basal level | Plasma Kallikrein Protein Levels (% of basal level), Mean ([1]; 3 mpk, Day 308): 27.6 % of basal level | Plasma Kallikrein Protein Levels (% of basal level), Mean ([1]; 3 mpk, Day 326): 23.8 % of basal level | Plasma Kallikrein Protein Levels (% of basal level), Mean ([1]; 3 mpk, Day 333): 25.3 % of basal level | Plasma Kallikrein Protein Levels (% of basal level), Mean ([1]; 3 mpk, Day 347): 22.1 % of basal level | Plasma Kallikrein Protein Levels (% of basal level), Mean ([1]; 3 mpk, Day 365): 11.4 % of basal level | Plasma Kallikrein Protein Levels (% of basal level), Mean ([1]; 6 mpk, Day 14): 13.7 % of basal level | Plasma Kallikrein Protein Levels (% of basal level), Mean ([1]; 6 mpk, Day 28): 6.6 % of basal level | Plasma Kallikrein Protein Levels (% of basal level), Mean ([1]; 6 mpk, Day 42): 6.3 % of basal level | Plasma Kallikrein Protein Levels (% of basal level), Mean ([1]; 6 mpk, Day 56): 5.8 % of basal level | Plasma Kallikrein Protein Levels (% of basal level), Mean ([1]; 6 mpk, Day 70): 5.8 % of basal level | Plasma Kallikrein Protein Levels (% of basal level), Mean ([1]; 6 mpk, Day 84): 6.7 % of basal level | Plasma Kallikrein Protein Levels (% of basal level), Mean ([1]; 6 mpk, Day 105): 7.6 % of basal level | Plasma Kallikrein Protein Levels (% of basal level), Mean ([1]; 6 mpk, Day 119): 6.4 % of basal level | Plasma Kallikrein Protein Levels (% of basal level), Mean ([1]; 6 mpk, Day 147): 6.7 % of basal level | Plasma Kallikrein Protein Levels (% of basal level), Mean ([1]; 6 mpk, Day 161): 7.4 % of basal level | Plasma Kallikrein Protein Levels (% of basal level), Mean ([1]; 6 mpk, Day 180): 2.9 % of basal level | Plasma Kallikrein Protein Levels (% of basal level), Mean ([1]; 6 mpk, Day 238): 3.7 % of basal level | Plasma Kallikrein Protein Levels (% of basal level), Mean ([1]; 6 mpk, Day 252): 3.9 % of basal level | Plasma Kallikrein Protein Levels (% of basal level), Mean ([1]; 6 mpk, Day 266): 3.7 % of basal level | Plasma Kallikrein Protein Levels (% of basal level), Mean ([1]; 6 mpk, Day 280): 6.3 % of basal level | Plasma Kallikrein Protein Levels (% of basal level), Mean ([1]; 6 mpk, Day 294): 7.4 % of basal level | Plasma Kallikrein Protein Levels (% of basal level), Mean ([1]; 6 mpk, Day 308): 6.2 % of basal level | Plasma Kallikrein Protein Levels (% of basal level), Mean ([1]; 6 mpk, Day 326): 8 % of basal level | Plasma Kallikrein Protein Levels (% of basal level), Mean ([1]; 6 mpk, Day 333): 7.8 % of basal level | Plasma Kallikrein Protein Levels (% of basal level), Mean ([1]; 6 mpk, Day 347): 7.3 % of basal level | Plasma Kallikrein Protein Levels (% of basal level), Mean ([1]; 6 mpk, Day 365): 4.3 % of basal level | durability of response in NHPs (plasma kallikrein; cynomolgus monkey, in vivo): durable through one year | Kallikrein Activity (% of basal activity), Mean (plasma kallikrein; n=3, 1.5 mpk, Day 7): 67.8 % of basal activity

Reference: patent US20260240959A1, “METHODS FOR IN VIVO EDITING OF KLKB1” (INTELLIA THERAPEUTICS, INC., priority 2022, published 2026)
